Measured values: publication PMC6166713

What was measured:
GST-WASP(201–321) K225A = GST-WASP(201–321) K225A (UniProt P42768); test: scintillation proximity assay (SPA); 5 nM GST-WASP variant immobilised on protein A SPA fluoromicrospheres via an anti-GST antibody; varying concentrations of [3H]GTP·Cdc42; direct binding isotherm; apparent Kd; low-salt buffer
[1] = molecular target: GST-WASP(201–321) K225A/K226A (UniProt P42768); test: as above
[2] = molecular target: GST-WASP(201–321) K225A/K226A/R227A (UniProt P42768); test: as above
[3] = molecular target: GST-WASP(201–321) K225A/K226A/R227A/K230A/K231A/K232A (UniProt P42768); test: as above
[4] = molecular target: GST-WASP(201–321) K225A/R227A (UniProt P42768); test: as above
GST-WASP(201–321) K226A = GST-WASP(201–321) K226A (UniProt P42768); test: as above
[5] = molecular target: GST-WASP(201–321) K226A/R227A (UniProt P42768); test: as above
[6] = molecular target: GST-WASP(201–321) K230A/K231A/K232A (UniProt P42768); test: as above
[7] = molecular target: GST-WASP(201–321) K230A/K232A (UniProt P42768); test: as above
GST-WASP(201–321) K232A [8] = molecular target: GST-WASP(201–321) K232A (UniProt P42768); test: as above
GST-WASP(201–321) R227A = GST-WASP(201–321) R227A (UniProt P42768); test: as above
[9] = molecular target: GST-WASP(201–321) K230A/K231A/K232A (UniProt P42768); test: BLI; Octet Red; GST-WASP variants loaded on anti-GST sensors (10 μg/ml), dipped into a dilution range of Cdc42·GMPPNP; 50 mM Tris-HCl pH 7.5, 150 mM NaCl, 1 mM MgCl2, 0.02% Tween 20, 0.1% BSA, 0.05% sodium azide, 25 °C; GST-alone sensors subtracted
GST-WASP(201–321) K231A = GST-WASP(201–321) K231A (UniProt P42768); test: as above
[10] = molecular target: GST-WASP(201–321) K231A/K232A (UniProt P42768); test: as above
GST-WASP(201–321) K232A [11] = molecular target: GST-WASP(201–321) K232A (UniProt P42768); test: as above
[12] = molecular target: GST-WASP(201–321) wild type (UniProt P42768); test: as above

Work on “Cdc42 Δ7 Q61L (from UniProt P60953 1-191) (natural protein)” yielded a Kd (GST-WASP(201–321) K225A) of 2.8 µM, a Kd [1] of 7.4 µM and a Kd [2] of 8.8 µM. For the same substance, the Kd [3] was 98.6 µM, the Kd [4] was 7.5 µM and the Kd (GST-WASP(201–321) K226A) was 5.4 µM. For the same substance, the Kd [5] was 5.7 µM, the Kd [6] was 36 µM and the Kd [7] was 18.4 µM. For the same substance, the Kd (GST-WASP(201–321) K232A [8]) was 12.2 µM, the Kd (GST-WASP(201–321) R227A) was 4.3 µM and the Kd [9] was 0.307 µM. The koff [9] was 0.0914 s⁻¹, the kon [9] was 300000 M⁻¹ s⁻¹ and the Kd (GST-WASP(201–321) K231A) was 0.0896 µM. The koff (GST-WASP(201–321) K231A) was 0.0438 s⁻¹, the kon (GST-WASP(201–321) K231A) was 509000 M⁻¹ s⁻¹ and the Kd [10] was 0.178 µM. It also gave a koff [10] of 0.0639 s⁻¹, a kon [10] of 368000 M⁻¹ s⁻¹ and a Kd (GST-WASP(201–321) K232A [11]) of 0.134 µM. The koff (GST-WASP(201–321) K232A [11]) was 0.0546 s⁻¹, the kon (GST-WASP(201–321) K232A [11]) was 407000 M⁻¹ s⁻¹ and the Kd [12] was 0.0637 µM. The koff [12] was 0.0417 s⁻¹ and the kon [12] was 691000 M⁻¹ s⁻¹.
